The test system of series [1] is ZFN 16234 (OCT4 pair 3, L) (synthetic). Description: cell_activity. Conditions: ZFN pair 3 with 16233, 2.5 ug, BG01 hESC; only 2 clones; 0% at 10 ug (1 clone); labelled pair 2 in Table 3.
For series [2], the system named is ZFN 16233 (OCT4 pair 3, R) (synthetic). Description: cell_activity. Conditions: ZFN pair 3 with 16234, 2.5 ug, BG01 hESC; only 2 clones; 0% at 10 ug (1 clone); labelled pair 2 in Table 3.

With “CCCAGGAGAGGAGCAGGCAGGGTCAGCT (double strand) [OCT4 target of 16234]”, in series [1], the activity (% targeting efficiency) was found to be 50.

On to “GCCAGGTCTGGGCAGCTGCAGGTGACCA (double strand) [OCT4 target of 16233]”, for which the activity (% targeting efficiency) in series [2] was found to be 50.

Source of the values: patent US20110027235.
